Biological target: T1, recombinant HLA A0201 (heavy chain produced in E. coli, with human beta2-microglobulin) (human)
T1 construct: also called rHLA A0201; HLA-A2.01
Assay: competition with iodinated [..] for recombinant HLA A0201; 1 uM unlabelled peptide
Conditions: not given

Binding result, binds:
GLMVGGVVI [Peptide 1, GLMVGGVVI, derived from Abeta 1-42]
KLVFFAEDV [Peptide 2, KLVFFAEDV, derived from Abeta 1-42]
IIGLMVGGV [Peptide 6, IIGLMVGGV, derived from Abeta 1-42]
LMVGGVVIA (6) [Peptide 10, LMVGGVVIA, derived from Abeta 1-42]

Biological target: recombinant HLA A0201 (Homo sapiens, UniProt P04439, D140Y/D185E/D98H/E176V/E277Q/G131W/G231S/I119V/I121R/I166T/I218V/L300P/L318F/N151K/N90K/P208A/P217A/Q86G/Q94H/R138H/R169H/T345S)
Assay: Competition with radiolabelled control peptide for binding to recombinant HLA A0201
Conditions: initial screening, 1 uM peptide, 1 nM rHLA A0201 (FIG. 1)
Description: FIG. 1: FIG. 1: Binding of radiolabelled peptide to 1 nM rHLA A0201 in absence or presence of 1 uM Abeta 1-42 or homologue-derived peptides (numbered 1-10; see Table 4). Binding is shown relative to measured binding without competition (maximal binding). The control peptide (ctrl): […] (SEQ ID NO. 1).
The binding (or lack thereof) of HLA-A2.01 epitopes derived from the Abeta homologue LV/EE (modifications at positions 17 and 18) was tested in an in vitro system to validate the computer predictions. Comparisons were made to predicted epitopes from the wild-type human Abeta 1-42 sequence. Recombinant HLA A0201 heavy chains were produced in E. coli and purified from inclusion bodies according to a standard procedure described elsewhere (Ostergaard Pederson, L. et al. 2001). Briefly, HLA 0201 heavy chains (1 nM were incubated for 4 hr. at room temperature with 1 nM iodinated control binding peptide ([…]-SEQ ID No. 1; this peptide has a score of 607.884 when submitted to the ILA Peptide Binding Prediction program at BIMAS), 1000 nM human β2M and graded doses (indicated in figures) of unlabelled peptide of interest (derived from Abeta or its homologue). Receptor bound and free peptide were separated by G25 spun column chromatography (Buus, S. et al. 1995) and counted in a gamma counter (Cobra). The peptides used in this study are listed in Table 4: […]

Ability to compete away the binding of the control radiolabeled peptide to recombinant HLA-A201 molecules, able to compete:
IIGLMVGGV
LMVGGVVIA
KLVFFAEDV
GLMVGGVVI

Ability to compete away the binding of the control radiolabeled peptide to recombinant HLA-A201 molecules, did not bind well:
YEVHHQKLV
FRHDSGYEV
YEVHHQKEE
KEEFFAEDV
HHQKEEFFA
AEFRHDSGY

— patent US20040091945A1, “Peptides and methods of screening immunogenic peptide vaccines against Alzheimer's Disease” (priority 2002, published 2004)
